Measured values as given in patent US20250092148A1 (Kyowa Kirin, published 2025).

B1: 116-413 (Fab, V domains shown)
VH: QVQLVQSGAEVKKPGASVKVSCKVSGYTLTDLSMHWVRQAPGKGLEWMGGFDPEDGETIYAQKFQGRVTMTEDTSTDTAYMELSSLRSEDTAVYYCATGLFYYQYGMDVWGQGTTVTVSS
VL: not shown
notes: phage library clone, E. coli culture supernatant
B2: 116-439 (Fab, V domains shown)
VH: QVQLQQSGAEVKKPGASVKVSCKVSGYTLTDLSMHWVRQAPGKGLEWMGGFDPEDGERIYAQKFQGRVTMTEDTSTDTAYMELSSLRSEDTAVYYCATGLFYYQYGMDVWGQGTLVTVSS
VL: not shown
notes: as for B1
B3: 116-421 (Fab, V domains shown)
VH: QVQLQQSGAEVKKPGASVKVSCKVSGYTLTDLSMHWVRQAPGKGLEWMGGFDPEDGERIYAQKFQGRVTMTEDTATDTAYMELSSLRSEDTAVYHCATGLFYYQYGMDVWGQGTTVTVSS
VL: not shown
notes: as for B1
B4: 116-466 (Fab, V domains shown)
VH: QVQLVQSGAEVKKPGASVKVSCKVSGYTLTDLSMHWVRQAPGKGLEWMGGFDPEDGERIYAQKFQDRVTMTEDTSTDTAYMELSSLRSEDTAVYYCATGLFYYQYGMDVWGQGTLVTVSS
VL: not shown
notes: as for B1
B5: 116-465 (Fab, V domains shown)
VH: QVQLVQSGAEVKKPGASVKVSCKVSGYPLTDLSMHWVRQAPGEGLEWMGGSDPEDGETIYAQKFQGRVTVTEDTSTDTAYMELSNLRSEDTAVYYCATGLFYYQYGMDVWGQGTTVTVSS
VL: not shown
notes: as for B1
B6: 116-463 (Fab, V domains shown)
VH: QVQLVQSGAEVKKPGASVKVSCKVSGYTLTDFAIHWVRQAPGKGLEWMGGFDPEDGERIYAQKFQGRVTMTEDTSTDTAYMELSSLRSEDTAVYYCATGLFYYQYGMDVWGQGTTVTVSS
VL: not shown
notes: as for B1
B7: 116-398 (Fab, V domains shown)
VH: EVQLVQSGAEVKKPGASVKVSCKVSGYTLAELSMHWVRQAPGKGLEWMGGFDPEDGERIYAQKFQGRVTMTEDTSKDTAYMELSSLRSEDTAVYYCTTGLFYYQYGMDVWGQGTMVTVSS
VL: not shown
notes: phage library clone, tested as E. coli culture supernatant (FLAG-His tag)
B8: 116-433 (Fab, V domains shown)
VH: QVQLVQSGAEVKKPGASVKVSCKVSGYTLTDFAIHWVRQAPGKGLEWMGGFDPEDGERIYAQKFQGRVTMTEDTSTDTAYMELSSLRSEDTAVYYCTTGLFYYQYGMDVWGQGTLVTVSS
VL: not shown
notes: as for B1
B9: 116-412 (Fab, V domains shown)
VH: EVQLVQSGAEVKKPGASVKVSCKVSGYTLTDLSMHWVRQAPGKGLEWMGGLDPEDGETIYAQKFQGRVTMTEDTSTDTAYMELSSLRSEDTAVYYCATGLFYYQYGMDVWGQGTLVTVSS
VL: not shown
notes: as for B1
B10: 116-464 (Fab, V domains shown)
VH: QVQLVQSGAEVKKPGASVKVSCKVSGYTLTDLSMHWVRQAPGKGLEWMGGFDPEDGERIYAQKFQGRVTMTEDTSTDTAYMELSSLRSEDTAMYYCATGLFYYQYGMDVWGQGTTVTVSS
VL: not shown
notes: as for B1
B11: 116-435 (Fab, V domains shown)
VH: EVQLVQSGAEVKKPGASVKVSCKVSGYTLTELSMHWVRQAPGKGLEWMGGFDPEDGERIYAQKFQGRVTMTEDTSTDTAYMELSSLRSEDTAVYYCATGLFYYQYGMDVWGQGTTVTVSS
VL: not shown
notes: as for B1

target: T1, human CD116 soluble antigen (His-tag form) (human, UniProt P15509 23-320); assay: screening by ELISA on biotinylated antigen and by flow cytometry, E. coli supernatant
T1 construct: extracellular domain; expressed in Expi293F cells; also called hCD116-His
T1 sequence (looked up): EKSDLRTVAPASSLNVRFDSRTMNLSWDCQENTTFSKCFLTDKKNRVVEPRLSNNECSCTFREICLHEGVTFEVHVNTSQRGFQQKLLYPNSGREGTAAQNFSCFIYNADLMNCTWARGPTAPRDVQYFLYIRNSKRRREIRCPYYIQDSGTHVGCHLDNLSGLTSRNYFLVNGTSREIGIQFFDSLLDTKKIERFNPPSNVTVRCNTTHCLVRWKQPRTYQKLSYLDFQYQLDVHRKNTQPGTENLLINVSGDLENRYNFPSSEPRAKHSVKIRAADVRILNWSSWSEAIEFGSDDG

Question: Does B1 bind?
Answer: Result: binds

Question: Does B2 bind?
Answer: Result: binds

Question: Does B3 bind?
Answer: Result: binds

Question: Does B4 bind?
Answer: Result: binds

Question: Does B5 bind?
Answer: Result: binds

Question: Does B6 bind?
Answer: Result: binds

Question: Does B7 bind?
Answer: Result: binds

Question: Does B8 bind?
Answer: Result: binds

Question: Does B9 bind?
Answer: Result: binds

Question: Does B10 bind?
Answer: Result: binds

Question: Does B11 bind?
Answer: Result: binds
